Laboratory results published in paper PMC12102759 (2025).

B1: ATXN2 peptide 913-928 (Ataxin-2), 16-mer library wild type / PABPC1 PABC (PABPC1 PABC domain, residues 544-623) (parent complex)
chain 1: TLNPNAKEFNPRSFSQ
chain 2: PLTASMLASAPPQEQKQMLGERLFPLIQAMHPTLAGKITGMLLEIDNSELLHMLESPESLRSKVDEAVAVLQAHQAKEAA
B2: SH3BP2 peptide 410-425 (SH3 domain-binding protein 2), 16-mer library wild type / TNKS ANK (TNKS 12 ANK repeats, residues 174-649) (parent complex)
chain 1: LPHLQRSPPDGQSFRS
chain 2: TGVPAVSGALRELLEACRNGDVSRVKRLVDAANVNAKDMAGRKSSPLHFAAGFGRKDVVEHLLQMGANVHARDDGGLIPLHNACSFGHAEVVSLLLCQGADPNARDNWNYTPLHEAAIKGKIDVCIVLLQHGADPNIRNTDGKSALDLADPSAKAVLTGEYKKDELLEAARSGNEEKLMALLTPLNVNCHASDGRKSTPLHLAAGYNRVRIVQLLLQHGADVHAKDKGGLVPLHNACSYGHYEVTELLLKHGACVNAMDLWQFTPLHEAASKNRVEVCSLLLSHGADPTLVNCHGKSAVDMAPTPELRERLTYEFKGHSLLQAAREADLAKVKKTLALEIINFKQPQSHETALHCAVASLHPKRKQVTELLLRKGANVNEKNKDFMTPLHVAAERAHNDVMEVLHKHGAKMNALDTLGQTALHRAALAGHLQTCRLLLSYGSDPSIISLQGFTAAQMGNEAVQQILSESTPIRTSD

Variants of: B1
Assay: proteomic peptide phage display deep mutational scan (ProP-PD DMS): M13 P8 16-mer library selected against immobilised GST-tagged bait for four days (rounds), NGS of the eluted pools per day and pseudo-replica; bait immobilised on MaxiSorp plates (10 µg), library pre-cleared on GST, 2 h binding at 4 °C, five washes; one round per day, days 1-4; value from days 2 and 3

Question: With chain 1 A6S as the variant, how does the screen value read?
Answer: 0.000246 average fractional NGS count over selection days 2 and 3 (reads of this peptide / all reads for the bait, averaged over …

Question: For chain 1 E8S, which screen value is on record?
Answer: 0.00107 average fractional NGS count over selection days 2 and 3 (reads of this peptide / all reads for the bait, averaged over …

Question: How did the screen value turn out when chain 1 E8Q was run?
Answer: 0.000543 average fractional NGS count over selection days 2 and 3 (reads of this peptide / all reads for the bait, averaged over …

Question: chain 1 E8M was tested. Which screen value did it give?
Answer: 0.00043 average fractional NGS count over selection days 2 and 3 (reads of this peptide / all reads for the bait, averaged over …

Question: How did the screen value turn out when chain 1 E8Y was run?
Answer: 0.000547 average fractional NGS count over selection days 2 and 3 (reads of this peptide / all reads for the bait, averaged over …

Question: How did the screen value turn out when chain 1 E8V was run?
Answer: 0.00108 average fractional NGS count over selection days 2 and 3 (reads of this peptide / all reads for the bait, averaged over …

Question: Which screen value does the source give for chain 1 E8H here?
Answer: 0.00041 average fractional NGS count over selection days 2 and 3 (reads of this peptide / all reads for the bait, averaged over …

Question: With chain 1 E8T as the variant, how does the screen value read?
Answer: 0.00103 average fractional NGS count over selection days 2 and 3 (reads of this peptide / all reads for the bait, averaged over …

Question: chain 1 N5A was tested. Which screen value did it give?
Answer: 0.00056 average fractional NGS count over selection days 2 and 3 (reads of this peptide / all reads for the bait, averaged over …

Question: How did the screen value turn out when chain 1 N5D was run?
Answer: 0.00049 average fractional NGS count over selection days 2 and 3 (reads of this peptide / all reads for the bait, averaged over …

Question: With chain 1 N5G as the variant, how does the screen value read?
Answer: 0.00173 average fractional NGS count over selection days 2 and 3 (reads of this peptide / all reads for the bait, averaged over …

Question: For chain 1 N5I, which screen value is on record?
Answer: 0.00126 average fractional NGS count over selection days 2 and 3 (reads of this peptide / all reads for the bait, averaged over …

Question: With chain 1 S13Q as the variant, how does the screen value read?
Answer: 0.000347 average fractional NGS count over selection days 2 and 3 (reads of this peptide / all reads for the bait, averaged over …

Question: For chain 1 S13D, which screen value is on record?
Answer: 0.00111 average fractional NGS count over selection days 2 and 3 (reads of this peptide / all reads for the bait, averaged over …

Question: For chain 1 S13G, which screen value is on record?
Answer: 0.00314 average fractional NGS count over selection days 2 and 3 (reads of this peptide / all reads for the bait, averaged over …

Question: For chain 1 S13N, which screen value is on record?
Answer: 0.00133 average fractional NGS count over selection days 2 and 3 (reads of this peptide / all reads for the bait, averaged over …

Question: Which screen value does the source give for chain 1 S13T here?
Answer: 0.00197 average fractional NGS count over selection days 2 and 3 (reads of this peptide / all reads for the bait, averaged over …

Question: Which screen value does the source give for chain 1 T1D here?
Answer: 0.00327 average fractional NGS count over selection days 2 and 3 (reads of this peptide / all reads for the bait, averaged over …

Question: How did the screen value turn out when chain 1 T1N was run?
Answer: 0.000793 average fractional NGS count over selection days 2 and 3 (reads of this peptide / all reads for the bait, averaged over …

Question: How did the screen value turn out when chain 1 T1R was run?
Answer: 0.00254 average fractional NGS count over selection days 2 and 3 (reads of this peptide / all reads for the bait, averaged over …

Question: Which screen value does the source give for chain 1 T1I here?
Answer: 0.000134 average fractional NGS count over selection days 2 and 3 (reads of this peptide / all reads for the bait, averaged over …

Question: For chain 1 F14N, which screen value is on record?
Answer: 0.00127 average fractional NGS count over selection days 2 and 3 (reads of this peptide / all reads for the bait, averaged over …

Question: How did the screen value turn out when chain 1 F14E was run?
Answer: 0.000387 average fractional NGS count over selection days 2 and 3 (reads of this peptide / all reads for the bait, averaged over …

Question: For chain 1 F14P, which screen value is on record?
Answer: 0.00134 average fractional NGS count over selection days 2 and 3 (reads of this peptide / all reads for the bait, averaged over …

Question: How did the screen value turn out when chain 1 F9W was run?
Answer: 0.00363 average fractional NGS count over selection days 2 and 3 (reads of this peptide / all reads for the bait, averaged over …

Question: Which screen value does the source give for chain 1 N3D here?
Answer: 0.00069 average fractional NGS count over selection days 2 and 3 (reads of this peptide / all reads for the bait, averaged over …

Question: How did the screen value turn out when chain 1 N3Q was run?
Answer: 0.00023 average fractional NGS count over selection days 2 and 3 (reads of this peptide / all reads for the bait, averaged over …

Question: For chain 1 N10W, which screen value is on record?
Answer: 0.000811 average fractional NGS count over selection days 2 and 3 (reads of this peptide / all reads for the bait, averaged over …

Question: With chain 1 N10S as the variant, how does the screen value read?
Answer: 0.000422 average fractional NGS count over selection days 2 and 3 (reads of this peptide / all reads for the bait, averaged over …

Question: chain 1 N10Q was tested. Which screen value did it give?
Answer: 0.00128 average fractional NGS count over selection days 2 and 3 (reads of this peptide / all reads for the bait, averaged over …

Question: How did the screen value turn out when chain 1 N10T was run?
Answer: 0.00052 average fractional NGS count over selection days 2 and 3 (reads of this peptide / all reads for the bait, averaged over …

Question: How did the screen value turn out when chain 1 S15D was run?
Answer: 0.000508 average fractional NGS count over selection days 2 and 3 (reads of this peptide / all reads for the bait, averaged over …

Question: With chain 1 S15R as the variant, how does the screen value read?
Answer: 0.000394 average fractional NGS count over selection days 2 and 3 (reads of this peptide / all reads for the bait, averaged over …

Question: chain 1 S15Q was tested. Which screen value did it give?
Answer: 0.000598 average fractional NGS count over selection days 2 and 3 (reads of this peptide / all reads for the bait, averaged over …

Question: chain 1 S15F was tested. Which screen value did it give?
Answer: 0.000374 average fractional NGS count over selection days 2 and 3 (reads of this peptide / all reads for the bait, averaged over …

Question: Which screen value does the source give for chain 1 S15A here?
Answer: 0.000937 average fractional NGS count over selection days 2 and 3 (reads of this peptide / all reads for the bait, averaged over …

Question: chain 1 P4H was tested. Which screen value did it give?
Answer: 0.000277 average fractional NGS count over selection days 2 and 3 (reads of this peptide / all reads for the bait, averaged over …

Question: For chain 1 P4V, which screen value is on record?
Answer: 0.00399 average fractional NGS count over selection days 2 and 3 (reads of this peptide / all reads for the bait, averaged over …

Question: With chain 1 L2F as the variant, how does the screen value read?
Answer: 0.000314 average fractional NGS count over selection days 2 and 3 (reads of this peptide / all reads for the bait, averaged over …

Question: How did the screen value turn out when chain 1 L2Y was run?
Answer: 0.000336 average fractional NGS count over selection days 2 and 3 (reads of this peptide / all reads for the bait, averaged over …

Question: How did the screen value turn out when chain 1 R12G was run?
Answer: 0.000653 average fractional NGS count over selection days 2 and 3 (reads of this peptide / all reads for the bait, averaged over …

Question: How did the screen value turn out when chain 1 R12I was run?
Answer: 0.00122 average fractional NGS count over selection days 2 and 3 (reads of this peptide / all reads for the bait, averaged over …

Question: With chain 1 R12E as the variant, how does the screen value read?
Answer: 0.000493 average fractional NGS count over selection days 2 and 3 (reads of this peptide / all reads for the bait, averaged over …

Question: Which screen value does the source give for chain 1 R12D here?
Answer: 0.00156 average fractional NGS count over selection days 2 and 3 (reads of this peptide / all reads for the bait, averaged over …

Question: For chain 1 R12V, which screen value is on record?
Answer: 0.00419 average fractional NGS count over selection days 2 and 3 (reads of this peptide / all reads for the bait, averaged over …

Question: chain 1 R12T was tested. Which screen value did it give?
Answer: 0.00189 average fractional NGS count over selection days 2 and 3 (reads of this peptide / all reads for the bait, averaged over …

Question: chain 1 R12F was tested. Which screen value did it give?
Answer: 0.000951 average fractional NGS count over selection days 2 and 3 (reads of this peptide / all reads for the bait, averaged over …

Question: chain 1 P11H was tested. Which screen value did it give?
Answer: 0.00248 average fractional NGS count over selection days 2 and 3 (reads of this peptide / all reads for the bait, averaged over …

Question: For chain 1 P11T, which screen value is on record?
Answer: 0.00444 average fractional NGS count over selection days 2 and 3 (reads of this peptide / all reads for the bait, averaged over …

Question: Which screen value does the source give for chain 1 P11V here?
Answer: 0.00178 average fractional NGS count over selection days 2 and 3 (reads of this peptide / all reads for the bait, averaged over …

Question: With chain 1 P11L as the variant, how does the screen value read?
Answer: 0.000381 average fractional NGS count over selection days 2 and 3 (reads of this peptide / all reads for the bait, averaged over …

Question: How did the screen value turn out when chain 1 K7H was run?
Answer: 0.0027 average fractional NGS count over selection days 2 and 3 (reads of this peptide / all reads for the bait, averaged over …

Question: With chain 1 K7G as the variant, how does the screen value read?
Answer: 0.00102 average fractional NGS count over selection days 2 and 3 (reads of this peptide / all reads for the bait, averaged over …

Question: How did the screen value turn out when chain 1 K7W was run?
Answer: 0.00309 average fractional NGS count over selection days 2 and 3 (reads of this peptide / all reads for the bait, averaged over …

Question: chain 1 K7Y was tested. Which screen value did it give?
Answer: 0.0438 average fractional NGS count over selection days 2 and 3 (reads of this peptide / all reads for the bait, averaged over …

Variants of: B2
Assay: as above

Question: For chain 1 H3N, which screen value is on record?
Answer: 0.000146 average fractional NGS count over selection days 2 and 3 (reads of this peptide / all reads for the bait, averaged over …

Question: chain 1 H3W was tested. Which screen value did it give?
Answer: 0.000238 average fractional NGS count over selection days 2 and 3 (reads of this peptide / all reads for the bait, averaged over …

Question: With chain 1 H3M as the variant, how does the screen value read?
Answer: 0.0014 average fractional NGS count over selection days 2 and 3 (reads of this peptide / all reads for the bait, averaged over …

Question: How did the screen value turn out when chain 1 H3F was run?
Answer: 0.000397 average fractional NGS count over selection days 2 and 3 (reads of this peptide / all reads for the bait, averaged over …

Question: For chain 1 H3I, which screen value is on record?
Answer: 0.000522 average fractional NGS count over selection days 2 and 3 (reads of this peptide / all reads for the bait, averaged over …

Question: With chain 1 H3Q as the variant, how does the screen value read?
Answer: 0.000537 average fractional NGS count over selection days 2 and 3 (reads of this peptide / all reads for the bait, averaged over …

Question: Which screen value does the source give for chain 1 Q12G here?
Answer: 0.000919 average fractional NGS count over selection days 2 and 3 (reads of this peptide / all reads for the bait, averaged over …

Question: How did the screen value turn out when chain 1 Q12W was run?
Answer: 0.000548 average fractional NGS count over selection days 2 and 3 (reads of this peptide / all reads for the bait, averaged over …

Question: With chain 1 Q12E as the variant, how does the screen value read?
Answer: 0.000127 average fractional NGS count over selection days 2 and 3 (reads of this peptide / all reads for the bait, averaged over …

Question: How did the screen value turn out when chain 1 Q12M was run?
Answer: 0.00481 average fractional NGS count over selection days 2 and 3 (reads of this peptide / all reads for the bait, averaged over …

Question: Which screen value does the source give for chain 1 Q12T here?
Answer: 0.00582 average fractional NGS count over selection days 2 and 3 (reads of this peptide / all reads for the bait, averaged over …

Question: chain 1 Q12V was tested. Which screen value did it give?
Answer: 0.000654 average fractional NGS count over selection days 2 and 3 (reads of this peptide / all reads for the bait, averaged over …

Question: Which screen value does the source give for chain 1 Q12F here?
Answer: 0.000426 average fractional NGS count over selection days 2 and 3 (reads of this peptide / all reads for the bait, averaged over …

Question: Which screen value does the source give for chain 1 Q12S here?
Answer: 0.000969 average fractional NGS count over selection days 2 and 3 (reads of this peptide / all reads for the bait, averaged over …

Question: With chain 1 L1H as the variant, how does the screen value read?
Answer: 0.00559 average fractional NGS count over selection days 2 and 3 (reads of this peptide / all reads for the bait, averaged over …

Question: Which screen value does the source give for chain 1 L1E here?
Answer: 0.00294 average fractional NGS count over selection days 2 and 3 (reads of this peptide / all reads for the bait, averaged over …

Question: For chain 1 L1V, which screen value is on record?
Answer: 0.00338 average fractional NGS count over selection days 2 and 3 (reads of this peptide / all reads for the bait, averaged over …

Question: chain 1 L1N was tested. Which screen value did it give?
Answer: 0.0011 average fractional NGS count over selection days 2 and 3 (reads of this peptide / all reads for the bait, averaged over …

Question: Which screen value does the source give for chain 1 L1F here?
Answer: 0.000588 average fractional NGS count over selection days 2 and 3 (reads of this peptide / all reads for the bait, averaged over …

Question: For chain 1 L1Y, which screen value is on record?
Answer: 0.00138 average fractional NGS count over selection days 2 and 3 (reads of this peptide / all reads for the bait, averaged over …
